Measured values reported in US20240209076A1 (KODIAK SCIENCES, published 2024).
Changes are numbered by the printed parent chain. Names may count otherwise.

B1: anti-IL-6 antibody, heavy chain T65W, G66D / light chain M32L, M50D, N52S, M88Q (antibody, IgG1, V domains shown)
VH: EVQLVESGGGLVQPGGSLRLSCAASGFTFSPFAMSWVRQAPGKGLEWVAKISPGGSWTYYSDTVWDRFTFSLDTSKSTAYLQMNSLRAEDTAVYYCARQLWGYYALDIWGQGTLVTVSS
VL: DIQLTQSPSSLSASVGDRVTITCSASISVSYLYWYQQKPGKAPKLLIYDDSSLASGVPSRFSGSGSGTDFTLTISSLQPEDFATYYCQQWSGYPYTFGQGTKVEIK
notes: Full IgG1 (Expi293); VL = variant III
B2: anti-IL-6 antibody, heavy chain T65Y, G66D / light chain M32L, M50D, N52S, M88Q (antibody, IgG1, V domains shown)
VH: B1 VH with W65Y
VL: B1 VL
notes: as for B1
B3: anti-IL-6 antibody, heavy chain S35L, G66D / light chain M32L, M50D, N52S, M88Q (antibody, human IgG1, V domains shown)
VH: B1 VH with S35L, W65T
VL: B1 VL
notes: Human IgG1
B4: anti-IL-6 antibody, heavy chain S35T, G66D / light chain M32L, M50D, N52S, M88Q (antibody, human IgG1, V domains shown)
VH: B1 VH with S35T, W65T
VL: B1 VL
notes: Human IgG1
B5: anti-IL-6 antibody, heavy chain S35V, G66D / light chain M32L, M50D, N52S, M88Q (antibody, human IgG1, V domains shown)
VH: B1 VH with S35V, W65T
VL: B1 VL
notes: Human IgG1
B6: anti-IL-6 antibody, heavy chain S35G, G66D / light chain M32L, M50D, N52S, M88Q (antibody, human IgG1, V domains shown)
VH: B1 VH with S35G, W65T
VL: B1 VL
notes: Human IgG1
B7: anti-IL-6 antibody, heavy chain I51L, G66D / light chain M32L, M50D, N52S, M88Q (antibody, human IgG1, V domains shown)
VH: B1 VH with I51L, W65T
VL: B1 VL
notes: Human IgG1
B8: anti-IL-6 antibody, heavy chain I51H, G66D / light chain M32L, M50D, N52S, M88Q (antibody, human IgG1, V domains shown)
VH: B1 VH with I51H, W65T
VL: B1 VL
notes: Human IgG1
B9: anti-IL-6 antibody, heavy chain I51Q, G66D / light chain M32L, M50D, N52S, M88Q (antibody, human IgG1, V domains shown)
VH: B1 VH with I51Q, W65T
VL: B1 VL
notes: Human IgG1
B10: anti-IL-6 antibody, heavy chain S35F, G66D / light chain M32L, M50D, N52S, M88Q (antibody, human IgG1, V domains shown)
VH: B1 VH with S35F, W65T
VL: B1 VL
notes: Human IgG1
B11: anti-IL-6 antibody, heavy chain S35P, G66D / light chain M32L, M50D, N52S, M88Q (antibody, human IgG1, V domains shown)
VH: B1 VH with S35P, W65T
VL: B1 VL
notes: Human IgG1
B12: anti-IL-6 antibody, heavy chain S35W, G66D / light chain M32L, M50D, N52S, M88Q (antibody, human IgG1, V domains shown)
VH: B1 VH with S35W, W65T
VL: B1 VL
notes: Human IgG1
B13: anti-IL-6 antibody, heavy chain T63I, G66D / light chain M32L, M50D, N52S, M88Q (antibody, human IgG1, V domains shown)
VH: B1 VH with T63I, W65T
VL: B1 VL
notes: Human IgG1
B14: anti-IL-6 antibody, heavy chain I51S, G66D / light chain M32L, M50D, N52S, M88Q (antibody, human IgG1, V domains shown)
VH: B1 VH with I51S, W65T
VL: B1 VL
notes: Human IgG1
B15: anti-IL-6 antibody, heavy chain S35Y, G66D / light chain M32L, M50D, N52S, M88Q (antibody, human IgG1, V domains shown)
VH: B1 VH with S35Y, W65T
VL: B1 VL
notes: Human IgG1
B16: anti-IL-6 antibody, heavy chain I51A, G66D / light chain M32L, M50D, N52S, M88Q (antibody, human IgG1, V domains shown)
VH: B1 VH with I51A, W65T
VL: B1 VL
notes: Human IgG1
B17: anti-IL-6 antibody, heavy chain T63A, G66D / light chain M32L, M50D, N52S, M88Q (antibody, human IgG1, V domains shown)
VH: B1 VH with T63A, W65T
VL: B1 VL
notes: Human IgG1
B18: anti-IL-6 antibody, heavy chain T63F, G66D / light chain M32L, M50D, N52S, M88Q (antibody, human IgG1, V domains shown)
VH: B1 VH with T63F, W65T
VL: B1 VL
notes: Human IgG1
B19: anti-IL-6 antibody, heavy chain S35E, G66D / light chain M32L, M50D, N52S, M88Q (antibody, human IgG1, V domains shown)
VH: B1 VH with S35E, W65T
VL: B1 VL
notes: Human IgG1
B20: anti-IL-6 antibody, heavy chain S35Q, G66D / light chain M32L, M50D, N52S, M88Q (antibody, human IgG1, V domains shown)
VH: B1 VH with S35Q, W65T
VL: B1 VL
notes: Human IgG1
B21: anti-IL-6 antibody, heavy chain T63H, G66D / light chain M32L, M50D, N52S, M88Q (antibody, human IgG1, V domains shown)
VH: B1 VH with T63H, W65T
VL: B1 VL
notes: Human IgG1
B22: anti-IL-6 antibody, heavy chain S35I, G66D / light chain M32L, M50D, N52S, M88Q (antibody, human IgG1, V domains shown)
VH: B1 VH with S35I, W65T
VL: B1 VL
notes: Human IgG1
B23: anti-IL-6 antibody, heavy chain I51Y, G66D / light chain M32L, M50D, N52S, M88Q (antibody, human IgG1, V domains shown)
VH: B1 VH with I51Y, W65T
VL: B1 VL
notes: Human IgG1
B24: anti-IL-6 antibody, heavy chain I51D, G66D / light chain M32L, M50D, N52S, M88Q (antibody, human IgG1, V domains shown)
VH: B1 VH with I51D, W65T
VL: B1 VL
notes: Human IgG1
B25: anti-IL-6 antibody, heavy chain S35K, G66D / light chain M32L, M50D, N52S, M88Q (antibody, human IgG1, V domains shown)
VH: B1 VH with S35K, W65T
VL: B1 VL
notes: Human IgG1
B26: anti-IL-6 antibody, heavy chain I51E, G66D / light chain M32L, M50D, N52S, M88Q (antibody, human IgG1, V domains shown)
VH: B1 VH with I51E, W65T
VL: B1 VL
notes: Human IgG1
B27: anti-IL-6 antibody, heavy chain I51K, G66D / light chain M32L, M50D, N52S, M88Q (antibody, human IgG1, V domains shown)
VH: B1 VH with I51K, W65T
VL: B1 VL
notes: Human IgG1
B28: anti-IL-6 antibody, heavy chain I51V, G66D / light chain M32L, M50D, N52S, M88Q (antibody, human IgG1, V domains shown)
VH: B1 VH with I51V, W65T
VL: B1 VL
notes: Human IgG1
B29: anti-IL-6 antibody, heavy chain I51G, G66D / light chain M32L, M50D, N52S, M88Q (antibody, human IgG1, V domains shown)
VH: B1 VH with I51G, W65T
VL: B1 VL
notes: Human IgG1
B30: anti-IL-6 antibody, heavy chain S35A, G66D / light chain M32L, M50D, N52S, M88Q (antibody, human IgG1, V domains shown)
VH: B1 VH with S35A, W65T
VL: B1 VL
notes: Human IgG1
B31: anti-IL-6 antibody, heavy chain T63D, G66D / light chain M32L, M50D, N52S, M88Q (antibody, human IgG1, V domains shown)
VH: B1 VH with T63D, W65T
VL: B1 VL
notes: Human IgG1
B32: anti-IL-6 antibody, heavy chain T63G, G66D / light chain M32L, M50D, N52S, M88Q (antibody, human IgG1, V domains shown)
VH: B1 VH with T63G, W65T
VL: B1 VL
notes: Human IgG1
B33: anti-IL-6 antibody, heavy chain I51T, G66D / light chain M32L, M50D, N52S, M88Q (antibody, human IgG1, V domains shown)
VH: B1 VH with I51T, W65T
VL: B1 VL
notes: Human IgG1
B34: anti-IL-6 antibody, heavy chain I51W, G66D / light chain M32L, M50D, N52S, M88Q (antibody, human IgG1, V domains shown)
VH: B1 VH with I51W, W65T
VL: B1 VL
notes: Human IgG1
B35: anti-IL-6 antibody, heavy chain I51F, G66D / light chain M32L, M50D, N52S, M88Q (antibody, human IgG1, V domains shown)
VH: B1 VH with I51F, W65T
VL: B1 VL
notes: Human IgG1
B36: anti-IL-6 antibody, heavy chain S35D, G66D / light chain M32L, M50D, N52S, M88Q (antibody, human IgG1, V domains shown)
VH: B1 VH with S35D, W65T
VL: B1 VL
notes: Human IgG1
B37: anti-IL-6 antibody, heavy chain I51R, G66D / light chain M32L, M50D, N52S, M88Q (antibody, human IgG1, V domains shown)
VH: B1 VH with I51R, W65T
VL: B1 VL
notes: Human IgG1

molecular target: T1, human IL-6 (human, UniProt P05231 30-212); assay: SPR Biacore, supernatant Ab on Protein A chip, 37 C
T1 construct: IL-6 flowed over captured antibodies
Procedure: (§1) Antibodies were captured on a Protein A chip (GE) by injecting 1:20 cell supernatant dilutions at 10 μL/min for 60 seconds. […] The sensor chip was regenerated by a 60 seconds injection of 10 mM Glycine pH 1.7 at the flow rate of 50 μL/min. […] For this setup, 1 μg/mL of purified antibody was injected over a Protein A chip at 10 μL/min for 25 seconds. […] The sensor chip was regenerated by a 60 seconds injection of 10 mM Glycine pH 1.7 at flow rate of 50 μL/min. Data analysis for supernatant and purified samples were performed using BIAevaluation software (GE). All sensorgrams were double reference subtracted and fit using a 1:1 Langmuir binding model.
T1 sequence (P05231 30-212 limits assumed): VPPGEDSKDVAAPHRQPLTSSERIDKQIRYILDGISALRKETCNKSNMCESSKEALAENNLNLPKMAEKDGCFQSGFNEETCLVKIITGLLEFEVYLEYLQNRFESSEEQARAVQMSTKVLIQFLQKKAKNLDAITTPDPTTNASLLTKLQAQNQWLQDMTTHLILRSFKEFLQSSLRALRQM

| Kd [nM] | koff [s⁻¹] | kon [M⁻¹ s⁻¹] | Binder |
| --- | --- | --- | --- |
| 0.322 | 0.000384 | 1.19e+06 | B1 |
| 0.237 | 0.000367 | 1.55e+06 | B2 |

molecular target: human IL-6 (human, UniProt P05231 30-212); assay: SPR (Biacore), supernatant antibody on Protein A chip, IL-6 flowed, 37 C
Procedure: as §1
Target sequence in this assay (P05231 30-212 limits assumed): as above

| Kd [nM] | koff [s⁻¹] | kon [M⁻¹ s⁻¹] | Binder |
| --- | --- | --- | --- |
| 2.59 | 0.00243 | 942000 | B3 |
| 0.498 | 0.000711 | 1.43e+06 | B4 |
| 1.33 | 0.00137 | 1.03e+06 | B5 |
| 0.609 | 0.000781 | 1.28e+06 | B6 |
| 0.98 | 0.00161 | 1.64e+06 | B7 |
| 0.5 | 0.00104 | 2.07e+06 | B8 |
| 0.575 | 0.00113 | 1.96e+06 | B9 |
| 3.17 | 0.00484 | 1.53e+06 | B10 |
| 27.1 | 0.00548 | 202000 | B11 |
| 34.6 | 0.00591 | 171000 | B12 |
| 0.288 | 0.000446 | 1.55e+06 | B13 |
| 0.217 | 0.000401 | 1.85e+06 | B14 |
| 3.43 | 0.00404 | 1.18e+06 | B15 |
| 0.559 | 0.000899 | 1.61e+06 | B16 |
| 0.268 | 0.000458 | 1.7e+06 | B17 |
| 0.274 | 0.000459 | 1.67e+06 | B18 |
| 0.867 | 0.00189 | 2.18e+06 | B19 |
| 0.3 | 0.000626 | 2.09e+06 | B20 |

| Kd [nM] | koff [s⁻¹] | kon [M⁻¹ s⁻¹] | Binder |
| --- | --- | --- | --- |
| 0.28 | 0.000481 | 1.72e+06 | B21 |
| 1.62 | 0.00147 | 904000 | B22 |
| 4.04 | 0.0247 | 6.1e+06 | B23 |
| 9.58 | 0.00799 | 834000 | B24 |
| 2.64 | 0.00346 | 1.31e+06 | B25 |
| 2.14 | 0.00196 | 914000 | B26 |
| 0.349 | 0.000601 | 1.72e+06 | B27 |
| 1.11 | 0.00195 | 1.76e+06 | B28 |
| 0.652 | 0.000912 | 1.4e+06 | B29 |
| 0.657 | 0.00126 | 1.93e+06 | B30 |
| 0.249 | 0.000413 | 1.66e+06 | B31 |
| 0.261 | 0.00045 | 1.73e+06 | B32 |
| 0.233 | 0.000478 | 2.05e+06 | B33 |
| 4.84 | 0.00383 | 791000 | B34 |
| 4.45 | 0.00611 | 1.37e+06 | B35 |
| 0.753 | 0.00177 | 2.35e+06 | B36 |
| 0.0357 | 5.8e-05 | 1.63e+06 | B37 |
